The record followed here is patent US20180282410A1 (Hoffmann-La Roche, published 2018).

Assay [1] concerns the target T1, human Robo 4 FN-like domain 1-Fc (human, UniProt P0DOX5 222-449 = IgG part).
T1 construct: also called fibronectin-like domain 1
Nature of the assay: SPR, IgG captured via anti-human Fab, domain-Fc as analyte. The method, then: (§1) All surface plasmon resonance (SPR) experiments are performed on a Biacore T100 at 25° C. with HBS-EP as running buffer (0.01 M HEPES pH 7.4, 0.15 M NaCl, 3 mM EDTA, 0.005% Surfactant P20 (Biacore)).
(§2) For determination of the epitope of the four analyzed anti-Robo 4 antibodies, domain variants of human Robo 4 (FN-like domain 1, FN-like domain 2, Ig-like domain 1 and Ig-like domain 2) were used. Anti-Robo 4 antibodies were captured for 60 s at 50 nM on a sensorchip surface with immobilized anti-human Fab specific antibody (GE Healthcare). Domain variants of human Robo 4 were passed at a concentration range of 0.46-1000 nM with a flow of 30 μl/min through the flow cells over 90 s. The dissociation was monitored for 120 s. Bulk refractive index differences were corrected for by subtracting the response obtained on reference flow cell as described above.
(In general: In SPR one partner is held on a chip, and binding of the other changes the refractive index at the surface.)

The target of assay [2] is T2, human Robo 4 FN-like domain 2-Fc (human, UniProt P0DOX5 222-449 = IgG part).
T2 construct: also called fibronectin-like domain 2
Described as above. The method, then: as §1, §2

The target in assay [3] is T3, human Robo 4 Ig-like domain 1-Fc (human, UniProt P0DOX5 222-449 = IgG part).
T3 construct: also called IgG-like domain 1
Described as above. Here is the method:
as §1, §2

Assay [4] has as its target T4, human Robo 4 Ig-like domain 2-Fc (human, UniProt P0DOX5 222-449 = IgG part).
T4 construct: also called IgG-like domain 2
The description is as above. Here is the method:
as §1, §2

Assay [5] has as its target T5, murine (mu) Robo 4 ECD-PreS-Avi-His (mouse).
T5 construct: also called recombinant murine Robo 4; murine Robo 4
T5 chain: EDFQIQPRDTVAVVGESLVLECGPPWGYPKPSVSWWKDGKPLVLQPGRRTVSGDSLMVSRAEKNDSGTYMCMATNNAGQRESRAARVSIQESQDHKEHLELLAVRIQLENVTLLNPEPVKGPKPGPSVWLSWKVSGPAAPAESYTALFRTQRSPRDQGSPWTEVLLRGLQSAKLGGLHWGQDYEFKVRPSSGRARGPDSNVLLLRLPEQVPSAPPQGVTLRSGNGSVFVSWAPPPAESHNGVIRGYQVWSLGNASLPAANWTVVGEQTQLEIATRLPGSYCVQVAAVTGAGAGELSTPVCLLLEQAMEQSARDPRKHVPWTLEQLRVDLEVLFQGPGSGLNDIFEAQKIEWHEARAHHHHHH
Kind of assay: SPR Biacore T100, biotinylated antigen on streptavidin chip, IgG as analyte (avidity). Here is the method: as §1
Determination of avidity was done by direct immobilization of biotinylated recombinant human, murine and cynomolgus Robo 4 on a Streptavidin sensor chip. Immobilization level ranged from 300 to 1000 RU. Anti-Robo 4 antibodies were passed through the flow cells for 220 s at 30 μl/min in a concentration range from 0.78-50 nM. Dissociation was monitored for 220 s. For the blank and the 25 nM injection dissociation was monitored for 600 s.
(§3) Kinetic constants were derived using the Biacore T100 Evaluation Software (vAA, Biacore), to fit rate equations for 1:1 Langmuir binding by numerical integration.

Assay [6] addresses T5, murine (mu) Robo 4 ECD-PreS-Avi-His. Kind of assay: SPR Biacore T100, IgG captured via anti-human Fab, antigen as analyte. The method, then: as §1
Anti Robo 4 antibodies were captured for 60 s at 50 nM. Recombinant human, murine and cynomolgus Robo 4 were passed at a concentration range from 0.46-1000 nM with a flow of 30 μl/min through the flow cells over 90 s. The dissociation was monitored for 120 s. Bulk refractive index differences were corrected for by subtracting the response obtained on a reference flow cell. Here, the antigens were flown over a surface with immobilized anti-human Fab specific antibody on which HBS-EP has been injected rather than the antibodies.
as §3

One may read the koff as the rate constant with which the complex falls apart. Low values mean slow dissociation, high ones fast dissociation. A word on the kon: it is the rate constant with which the complex forms. Read a low kon as slower complex formation.

B1: 01F05 anti-Robo 4 IgG (antibody, V domains shown)
VH: QVQLKQSGAELVKPGASVKISCKTSVYTFTYGYMHWVEQKPGQGLEWIGRIDPDSGNSMYNQKFQGRATLTRDKSSSTVYMELRSLTSEDSAVYYCARSMRYSGYRDYALDLWGQGTQVTVSS
VL: QLVLTQSPSASASLGASVKLTCTLSSQHSSYGITWLQQHPDKAPKYVMYLKSDGSHTKGADIPDRFSGSSSGVHRYLSISNVQPEDEAIYFCVTYDSTHVFGSGTQLTVLG
notes: also called 01F05 IgG
For the molecule B1, the binding result in assay [1], in assay [3] and in assay [4] was “no binding (tested: 0.46-1000 nM)” in each case. For the same molecule, the Kd in assay [2] is 30.6 nM; in assay [5] it was 0.19 nM. Further, the koff in assay [5] came to 7.32e-05 s⁻¹. The same molecule had a kon in assay [5] of 373000 M⁻¹ s⁻¹.

B2: 7G2 anti-Robo 4 IgG (antibody, V domains shown)
VH: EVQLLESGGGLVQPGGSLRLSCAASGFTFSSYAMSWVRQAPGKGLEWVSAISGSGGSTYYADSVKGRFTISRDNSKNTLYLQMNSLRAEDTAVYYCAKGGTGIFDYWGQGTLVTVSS
VL: EIVLTQSPGTLSLSPGERATLSCRASQSVSSSYLAWYQQKPGQAPRLLIYGASSRATGIPDRFSGSGSGTDFTLTISRLEPEDFAVYYCQQGQLPPRTFGQGTKVEIK
notes: also called 7G2 IgG
As for B2, the values for the binding result in assay [1], in assay [2] and in assay [6] were “no binding (tested: 0.46-1000 nM)”, “no binding (tested: 0.46-1000 nM)” and “no binding (tested: antigen 0.46-1000 nM)”, respectively. The Kd came out at 151 nM in assay [3] and 66.7 nM in assay [4].

B3: 01E06 anti-Robo 4 IgG (antibody, V domains shown)
VH: EVQLVESGGGLSQPGNSLKLSCEASGFTFRNYDMSWVRQAPGKGLEWVAYISSGGGPIYYVDAVKGRFTISRDNAKNLLFLQMNNLRSEDTAVYYCARDLADIGVFDYWGQGTMVTVSS
VL: DFKMTQSPDILSPSLGESVTITCQSSQNIYSNLAWYQQKPGEHPKLLIYTASILADGIPSRFTGSGSGTQFSLKISSLQPDDVANYYCQQYVYYRTFGPGTKLEIK
notes: also called 01E06 IgG
Turning to B3, the binding result in assay [1], in assay [2] and in assay [3] was “no binding (tested: 0.46-1000 nM)” throughout. The Kd is 4.9 nM in assay [4] and 1.07 nM in assay [5]. For the same molecule, in assay [5], the koff was found to be 0.000805 s⁻¹. The same molecule yielded a kon in assay [5] of 750000 M⁻¹ s⁻¹.

B4: 01F09 anti-Robo 4 IgG (antibody, V domains shown)
VH: QIQLQESGPGLVKPSQSLSLTCSVTGYSISSGSLWTWIRQFPGNNLEWMGYISYAGGIDYNPSLTSRISITRDTSRNQFFLQLESVTTQDTATYYCATPGGYPFHFDYWGQGTMVTVSS
VL: QPVLTQSPSASASLGASVKLTCTLNSQFSTYNIGWYQQHRDKPPKYVMFVKGDGGHSKADGIPDRFSGSSSGADRYLTISNIQAEDEAIYFCGADYNNAGQYGCVFGSGTHFTVLG
notes: also called 01F09 IgG
B4: the binding result in assay [1], in assay [2] and in assay [3] was “no binding (tested: 0.46-1000 nM)” in each case. In addition, the Kd in assay [4] stood at 55.5 nM; in assay [5], 1.09 nM. For the same molecule, the koff in assay [5] came to 0.00115 s⁻¹. Moreover, the kon in assay [5] came out at 1.05e+06 M⁻¹ s⁻¹.
